Laboratory results from publication PMC8231827, “A Novel Protein–Protein Interaction between RSK3 and IκBα and a New Binding Inhibitor That Suppresses Breast Cancer Tumorigenesis” (Cancers, 2021).

Molecular target: T1, pBIND-IκBα (GAL4 DNA-binding domain fusion of IκBα) (UniProt P25963 1-317)
T1 construct: source: HEK293T, transfected, mammalian two-hybrid fusion
T1 sequence (looked up): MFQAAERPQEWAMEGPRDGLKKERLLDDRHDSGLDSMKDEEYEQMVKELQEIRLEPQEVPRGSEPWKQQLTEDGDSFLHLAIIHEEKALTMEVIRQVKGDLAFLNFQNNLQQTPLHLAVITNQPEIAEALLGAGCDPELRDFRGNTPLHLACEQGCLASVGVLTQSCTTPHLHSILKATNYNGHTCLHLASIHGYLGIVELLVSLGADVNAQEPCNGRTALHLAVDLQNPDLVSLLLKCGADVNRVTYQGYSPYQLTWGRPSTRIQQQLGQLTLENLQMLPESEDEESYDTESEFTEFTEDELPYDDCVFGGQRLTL
Assay: two-hybrid; mammalian two-hybrid (CheckMate, Promega) in HEK293T: pBIND-IκBα (GAL4), pACT-RSK3 (VP16), pG5luc; firefly luciferase normalised to renilla, 24 h after transfection; also with RSK3I added 4 h after transfection
Details: partners not purified

fold luciferase activity over the pBind-IκBα vector-only control: ~3 fold
B1: pACT-RSK3 (VP16 activation domain fusion of RSK3) (natural protein, UniProt Q15349 1-733, looked up)
chain: MDLSMKKFAVRRFFSVYLRRKSRSKSSSLSRLEEEGVVKEIDISHHVKEGFEKADPSQFELLKVLGQGSYGKVFLVRKVKGSDAGQLYAMKVLKKATLKVRDRVRSKMERDILAEVNHPFIVKLHYAFQTEGKLYLILDFLRGGDLFTRLSKEVMFTEEDVKFYLAELALALDHLHSLGIIYRDLKPENILLDEEGHIKITDFGLSKEAIDHDKRAYSFCGTIEYMAPEVVNRRGHTQSADWWSFGVLMFEMLTGSLPFQGKDRKETMALILKAKLGMPQFLSGEAQSLLRALFKRNPCNRLGAGIDGVEEIKRHPFFVTIDWNTLYRKEIKPPFKPAVGRPEDTFHFDPEFTARTPTDSPGVPPSANAHHLFRGFSFVASSLIQEPSQQDLHKVPVHPIVQQLHGNNIHFTDGYEIKEDIGVGSYSVCKRCVHKATDTEYAVKIIDKSKRDPSEEIEILLRYGQHPNIITLKDVYDDGKFVYLVMELMRGGELLDRILRQRYFSEREASDVLCTITKTMDYLHSQGVVHRDLKPSNILYRDESGSPESIRVCDFGFAKQLRAGNGLLMTPCYTANFVAPEVLKRQGYDAACDIWSLGILLYTMLAGFTPFANGPDDTPEEILARIGSGKYALSGGNWDSISDAAKDVVSKMLHVDPHQRLTAMQVLKHPWVVNREYLSPNQLSRQDVHLVKGAMAATYFALNRTPQAPRLEPVLSSNLAQRRGMKRLTSTRL
notes: RSK3 (RPS6KA2) cloned into pACT; source: HEK293T, transfected, mammalian two-hybrid fusion
